Data published in patent US20260348975 (published 2026).

Legend:
Assay in all cases: SPR
[1] = target: T1, reduced IL-33 (human)
T1 chain: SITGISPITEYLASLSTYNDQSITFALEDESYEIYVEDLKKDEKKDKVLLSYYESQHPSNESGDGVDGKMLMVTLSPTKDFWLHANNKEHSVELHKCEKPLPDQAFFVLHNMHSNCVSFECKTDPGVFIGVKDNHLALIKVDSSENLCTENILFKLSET

[2] = target: T2, IL-33/sST2 complex (human)
T2 chain 1: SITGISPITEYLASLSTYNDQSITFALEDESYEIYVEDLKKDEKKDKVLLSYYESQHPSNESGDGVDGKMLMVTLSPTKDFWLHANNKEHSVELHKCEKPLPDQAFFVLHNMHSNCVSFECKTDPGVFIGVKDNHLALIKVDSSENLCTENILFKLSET
T2 chain 2: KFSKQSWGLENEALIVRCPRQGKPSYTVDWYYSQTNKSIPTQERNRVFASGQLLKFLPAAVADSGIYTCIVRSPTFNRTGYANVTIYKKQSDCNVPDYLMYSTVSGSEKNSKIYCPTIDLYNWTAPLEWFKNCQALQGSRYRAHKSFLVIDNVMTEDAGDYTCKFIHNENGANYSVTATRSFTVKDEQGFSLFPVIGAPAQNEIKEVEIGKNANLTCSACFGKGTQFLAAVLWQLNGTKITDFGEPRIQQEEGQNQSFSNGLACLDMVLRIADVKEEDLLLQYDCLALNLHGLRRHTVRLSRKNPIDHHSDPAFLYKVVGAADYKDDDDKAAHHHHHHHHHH

[3] = target: T3, oxidized IL-33 (human)
T3 chain: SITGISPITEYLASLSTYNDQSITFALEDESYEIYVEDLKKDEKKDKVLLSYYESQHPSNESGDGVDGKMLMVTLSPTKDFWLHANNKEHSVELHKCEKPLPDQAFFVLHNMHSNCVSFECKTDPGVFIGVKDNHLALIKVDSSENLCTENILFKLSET

| Binder | Kd [1] [nM] | Kd [2] [nM] | Kd [3] [nM] |
| --- | --- | --- | --- |
| AB1070008 (antibody, V domains shown) VH: QVQLQQSGPELVKPGASVKTSCKASGYSFTSYYIHWVKQRPGQGLEWIGWIYPGSGNTKYNEKFKGKATLTADTSSSTAFMQLSSLTSEDSAVYYCASGFHYYGRMDYWGQGTTLTVSS VL: DIQMTQSPSSLSASLGERVSLTCRASQEISGYLSWLQQKPDGTIKRLIYSTSTLDSGVPKSFSGSRSGSDYSLTISSLESEDFADYYCLQYASSPWTFGGGTKLEIK | 0.895 | 26.5 | – |
| AB1070141 (antibody, V domains shown) VH: QVQLQQSGAELMKPGASVKLSCKATGYIVTDYWIEWVKQRPGHGLEWIGEILPRSDSTNYNEKFKVRATFTADTSSNTAYMQLSSLTTEDSAIYYCASHYHYDGSLFVYWGQGTLVTVSS VL: DIVMSQSPSSLAVSAGEKVTMSCKSSQSLLNSRTRKNYLAWYQQKPGQSPKLLIYWASTRESGVPDRFTGSGSGTDFTLTISSVQAEDLAVYYCKQSYSLPTFGGGTKLEIK | – | – | 1.83 |
| AB1070019 (antibody, V domains shown) VH: QVQLQQSGAELAKPGASVKMSCKASGYTFTRYWMHWIKQRPGQGLEWIGYINPYSGYTEYNQKFKDKATLTADKSSSTAYMQLSSLTSEDSAVYYCARYSYYTYDGRGYAMDYWGQGTSVTVSS VL: DIVMTQSQKFMSTSVGDRVSVTCKASQNVGTNVAWYQQKPGQSPKALIYSASYRYSGVPDRFTGSGSGTDFTLTISNVQSEDLAEYFCQQYNSYPFTFGSGTKLEIK | 0.068 | – | – |
